Literature values in paper PMC1950483.

Legend:
Test in all cases: NMR
Details in all cases: folded FNfn10 in solution
Asp23 = Asp23 (UniProt position 1560, LLISWDAPAVT)
Asp7 = Asp7 (UniProt position 1544, SDVPRDLEVVA)
Glu9 = Glu9 (UniProt position 1546, VPRDLEVVAAT)

Question: For “Fibronectin, tenth type III domain (FNfn10) (Homo sapiens)”, which pKa (Asp23) is on record?
Answer: 5.40

Question: And the pKa (Asp7)?
Answer: 5.54

Question: What about the pKa (Glu9) of the same substance?
Answer: 5.25
